Data as given in patent US11472877 (Alector, dated 2022).

Assays:
mouse TREM2 on BWZ cells = molecular target: T1, mouse TREM2 on BWZ cells (mouse, UniProt Q99NH8 19-227); assay: FACS, BWZ cells
T1 construct: whole, on cells; also called BWZ Mouse TREM2
T1 sequence (looked up): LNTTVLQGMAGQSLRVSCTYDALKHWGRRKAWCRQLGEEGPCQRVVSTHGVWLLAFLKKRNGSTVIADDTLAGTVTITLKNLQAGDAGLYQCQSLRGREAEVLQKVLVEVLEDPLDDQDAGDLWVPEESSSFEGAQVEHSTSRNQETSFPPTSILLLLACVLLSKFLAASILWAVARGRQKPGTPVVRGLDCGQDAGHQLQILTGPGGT

human TREM2 on BWZ cells = molecular target: T2, human TREM2 on BWZ cells (human, UniProt Q9NZC2 19-230); assay: FACS, BWZ cells
T2 construct: whole, on cells; not tied to the cell line; also called BWZ Human TREM2
T2 sequence (looked up): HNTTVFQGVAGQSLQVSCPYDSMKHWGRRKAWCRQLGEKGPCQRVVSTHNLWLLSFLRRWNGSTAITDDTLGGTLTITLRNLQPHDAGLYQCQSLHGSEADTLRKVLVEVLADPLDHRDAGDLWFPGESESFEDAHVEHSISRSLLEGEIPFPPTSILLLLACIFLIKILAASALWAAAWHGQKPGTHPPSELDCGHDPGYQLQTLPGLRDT

Row | Binder | binding result (mouse TREM2 on BWZ cells) | binding result (human TREM2 on BWZ cells)
1 | T1-65 (antibody, IgG1, V domains shown, huIgG1; also called TI-65; ADI-19141) VH: QLQLQESGPGLVKPSETLSLTCTVSGGSISSSDYYWGWIRQPPGKGLEWIGSIYYSGSTYYNPSLKSRVTISVDTSKNQFSLKLSSVTAADTAVYYCARDSGQYTGSLDVWGQGTMVTVSS VL: not shown | no binding | no binding
2 | T1-78 (antibody, IgG1, V domains shown, huIgG1; also called TI-78; ADI-19155) VH: QLQLQESGPGLVKPSETLSLTCTVSGGSISSSSYYWGWIRQPPGKGLEWIGSIYYSGSTYYNPSLKSRVTISVDTSKNQFSLKLSSVTAADTAVYYCARDLGQYEGYFDLWGRGTLVTVSS VL: not shown | no binding | no binding
3 | T1-76 (antibody, IgG1, V domains shown, huIgG1; also called TI-76; ADI-19153) VH: not shown VL: DIQMTQSPSTLSASVGDRVTITCRASQSISSWLAWYQQKPGKAPKLLIYDASSLESGVPSRFSGSGSGTEFTLTISSLQPDDFATYYCQQHSTYSWTFGGGTKVEIK | no binding | no binding
4 | T1-68 (antibody, IgG1, V domains shown, huIgG1; also called TI-68; ADI-19144) VH: EVQLVQSGAEVKKPGESLKISCKGSGYSFTTYWIGWVRQMPGKGLEWMGIIYPGDSDTRYSPSFQGQVTISADKSISTAYLQWSSLKASDTAMYYCARGSPWDGRLFDIWGQGTMVTVSS VL: EIVLTQSPATLSLSPGERATLSCRASQSVSSYLAWYQQKPGQAPRLLIYDASNRATGIPARFSGSGSGTDFTLTISSLEPEDFAVYYCQQFDNLPYTFGGGTKVEIK | no binding | no binding
5 | T1-73 (antibody, IgG1, V domains shown, huIgG1; also called TI-73; ADI-19149) VH: EVQLVESGGGLVQPGRSLRLSCAASGFTFDDYAMHWVRQAPGKGLEWVSGISWNSGSIGYADSVKGRFTISRDNAKNSLYLQMNSLRAEDTALYYCAKAPRMYGYFDLWGRGTSVTVSS VL: DIQMTQSPSTLSASVGDRVTITCRASQSISSWLAWYQQKPGKAPKLLIYKASSLESGVPSRFSGSGSGTEFTLTISSLQPDDFATYYCQQYRTYPTFGGGTKVEIK | no binding | no binding
6 | T1-74 (antibody, IgG1, V domains shown, huIgG1; also called TI-74; ADI-19151) VH: EVQLVESGGGLVQPGRSLRLSCAASGFTFDDYAMHWVRQAPGKGLEWVSGISWNSGSIGYADSVKGRFTISRDNAKNSLYLQMNSLRAEDTALYYCAKGPRTRGYFDLWGRGTLVTVSS VL: DIQMTQSPSTLSASVGDRVTITCRASQSISSWLAWYQQKPGKAPKLLIYKASSLESGVPSRFSGSGSGTEFTLTISSLQPDDFATYYCQQHSLLSITFGGGTKVEIK | no binding | no binding
7 | T1-69 (antibody, IgG1, V domains shown, huIgG1; also called TI-69; ADI-19145) VH: QVQLVQSGAEVKKPGASVKVSCKASGYTFTSYGISWVRQAPGQGLEWMGWISAYNGNTNYAQKLQGRVTMTTDTSTSTAYMELRSLRSDDTAVYYCARGAGMYDGSPLGMDVWGQGTTVTVSS VL: DIQMTQSPSSVSASVGDRVTITCRASQGISSWLAWYQQKPGKAPKLLIYAASNLQSGVPSRFSGSGSGTDFTLTISSLQPEDFATYYCQQATAHPPTFGGGTKVEIK | no binding | no binding
8 | T1-71 (antibody, IgG1, V domains shown, huIgG1; also called TI-71; ADI-19147) VH: EVQLVESGGGLVQPGRSLRLSCAASGFTFGDYAMHWVRQAPGKGLEWVSGISWNSGSIGYADSVKGRFTISRDNAKNSLYLQMNSLRAEDTALYYCAKGPRRTSHLDIWGQGTMVTVSS VL: DIQMTQSPSSVSASVGDRVTITCRASQGIDSWLAWYQQKPGKAPKLLIYAASSLQSGVPSRFSGSGSGTDFTLTISSLQPEDFATYYCQQATSLPLTFGGGTKVEIK | no binding | no binding
9 | T1-70 (antibody, IgG1, V domains shown, huIgG1; also called TI-70; ADI-19146) VH: QVQLVQSGAEVKKPGASVKVSCKASGYTFTSYGIHWVRQAPGQGLEWMGWISAYNGNTNYAQKLQGRVTMTTDTSTSTAYMELRSLRSDDTAVYYCARAGTIYGRLDLWGRGTLVTVSS VL: DIQLTQSPSSVSASVGDRVTITCRASQDISSWLAWYQQKPGKAPKLLIYAASSLQSGVPSRFSGSGSGTDFTLTISSLQPEDFATYYCQQAVSHPLTFGGGTKVEIK | no binding | no binding
10 | T1-79 (antibody, IgG1, V domains shown, huIgG1; also called TI-79; ADI-19156) VH: QLQLQESGPGLVKPSETLSLTCTVSGGSISSSSYYWGWIRQPPGKGLEWIGSIYYSGSTYYNPSLKSRVTISVDTSKNQFSLKLSSVTAADTAVYYCARLGDGYRIWADYWGQGTLVTVSS VL: not shown | no binding | no binding
11 | T1-63 (antibody, IgG1, V domains shown, huIgG1; also called TI-63; ADI-19139) VH: QVQLQESGPGLVKPSETLSLTCAVSGYSISSGYYWGWIRQPPGKGLEWIGSIYHSGNTYYNPSLKSRVTISVDTSKNQFSLKLSSVTAADTAVYYCARELYAYSSPMFYGMDVWGRGTTVTVSS VL: DIQMTQSPSSLSASVGDRVTITCRASQSISRYLNWYQQKPGKAPKLLIYAASSLQSGVPSRFSGSGSGTDFTLTISSLQPEDFATYYCQQLYHAPPITFGGGTKVEIK | no binding | no binding
12 | T1-77 (antibody, IgG1, V domains shown, huIgG1; also called TI-77; ADI-19154) VH: QVQLQESGPGLVKPSETLSLTCAVSGYSISSGYYWAWIRQPPGKGLEWIGSIYHSGSTYYNPSLKSRVTISVDTSKNQFSLKLSSVTAADTAVYYCARGGPYPWSGWFDPWGQGTLVTVSS VL: EIVMTQSPATLSVSPGERATLSCRASQSVGSNLAWYQQKPGQAPRLLIYGASTRATGIPARFSGSGSGTEFTLTISSLQSEDFAVYYCQQHDVWPYTFGGGTKVEIK | no binding | no binding
13 | T1-4 (antibody, IgG1, V domains shown, huIgG1; also called TI-4; ADI-19070) VH: QVQLVQSGAEVKKPGSSVKVSCKASGGTFSSYAISWVRQAPGQGLEWMGGIIPIFGTANYAQKFQGRVTITADESTSTAYMELSSLRSEDTAVYYCARHYYYGYAYFDLWGRGTLVTVSS VL: EIVMTQSPATLSVSPGERATLSCRASQSVSSNLAWYQQKPGQAPRLLIYGASTRATGIPARFSGSGSGTEFTLTISSLQSEDFAVYYCQQFNNHPITFGGGTKVEIK | no binding | no binding
14 | T1-72 (antibody, IgG1, V domains shown, huIgG1; also called TI-72; ADI-19148) VH: EVQLVESGGGLVQPGRSLRLSCAASGFTFDDYAMHWVRQAPGKGLEWVSGISWNSGDIGYADSVKGRFTISRDNAKNSLYLQMNSLRAEDTALYYCAKGPRMTHSYFDLWGRGTLVTVSS VL: not shown | no binding | no binding
15 | T1-75 (antibody, IgG1, V domains shown, huIgG1; also called TI-75; ADI-19152) VH: QVQLVESGGGLVQPGRSLRLSCAASGFTFDDYAMHWVRQAPGKGLEWVSGISWNSGDIGYADSVKGRFTISRDNAKNSLYLQMNSLRAEDTALYYCAKAPRTRWTYFDYWGQGTLVTVSS VL: EIVLTQSPATLSLSPGERATLSCRASQSVSSYLAWYQQKPGQAPRLLIYDASNRATGIPARFSGSGSGTDFTLTISSLEPEDFAVYYCQHYNLWRTFGGGTKVEIK | no binding | no binding
16 | T1-59 (antibody, IgG1, V domains shown, huIgG1; also called TI-59; ADI-19135) VH: QVQLQESGPGLVKPSETLSLTCAVSGYSISSGYYWAWIRQPPGKGLEWIGSIYHSGSTYYNPSLKSRVTISVDTSKNQFSLKLSSVTAADTAVYYCARDLGGYEGAFDPWGQGTLVTVSS VL: not shown | no binding | no binding
17 | T1-61 (antibody, IgG1, V domains shown, huIgG1; also called TI-61; ADI-19137) VH: QVQLQESGPGLVKPSETLSLTCAVSGYSISSGYYWGWIRQPPGKGLEWIGSIYHSGSTYYNPSLKSRVTISVDTSKNQFSLKLSSVTAADTAVYYCARHDDYLSSFDPWGQGTLVTVSS VL: not shown | no binding | no binding
18 | T1-64 (antibody, IgG1, V domains shown, huIgG1; also called TI-64; ADI-19140) VH: QLQLQESGPGLVKPSETLSLTCTVSGGSISSSSYYWGWIRQPPGKGLEWIGSISYSGSTYYNPSLKSRVTISVDTSKNQFSLKLSSVTAADTAVYYCARYYSPYGMDVWGQGTTVTVSS VL: not shown | no binding | no binding
19 | T1-1 (antibody, IgG1, V domains shown, huIgG1; also called TI-1; ADI-19067) VH: QVQLVQSGAEVKKPGSSVKVSCKASGGTFSSYAISWVRQAPGQGLEWMGGIIPIFGTANYAQKFQGRVTITADESTSTAYMELSSLRSEDTAVYYCARGQGSDHYYYGMDVWGQGTTVTVSS VL: not shown | no binding | no binding
20 | T1-67 (antibody, IgG1, V domains shown, huIgG1; also called TI-67; ADI-19143) VH: QVQLVQSGAEVKKPGASVKVSCKASGYTFTSYGIHWVRQAPGQGLEWMGWISAYNGNTNYAQKLQGRVTMTTDTSTSTAYMELRSLRSDDTAVYYCARGRPSSSWGNWFDPWGQGTTVTVSS VL: EIVLTQSPGTLSLSPGERATLSCRASQSVSSSFLAWYQQKPGQAPRLLIYGASSRATGIPDRFSGSGSGTDFTLTISRLEPEDFAVYYCQQAVSLPWTFGGGTKVEIK | no binding | no binding
21 | T1-2 (antibody, IgG1, V domains shown, huIgG1; also called TI-2; ADI-19068) VH: QVQLVQSGAEVKKPGSSVKVSCKASGGTFSSYAISWVRQAPGQGLEWMGGIIPIFGTANYAQKFQGRVTITADESTSTAYMELSSLRSEDTAVYYCAREGGPRGASFNWFDPWGQGTLVTVSS VL: EIVLTQSPGTLSLSPGERATLSCRASQSVSSSYLAWYQQKPGQAPRLLIYGASSRATGIPDRFSGSGSGTDFTLTISRLEPEDFAVYYCQQYLGFPPTFGGGTKVEIK | no binding | no binding
